# doi:10.1101/557751
# Key:
# Assay in all cases: EMSA
# [1] = biological target: T1, CsiR (Pseudomonas putida (KT2440?)) (UniProt Q88IU1)
# T1 sequence: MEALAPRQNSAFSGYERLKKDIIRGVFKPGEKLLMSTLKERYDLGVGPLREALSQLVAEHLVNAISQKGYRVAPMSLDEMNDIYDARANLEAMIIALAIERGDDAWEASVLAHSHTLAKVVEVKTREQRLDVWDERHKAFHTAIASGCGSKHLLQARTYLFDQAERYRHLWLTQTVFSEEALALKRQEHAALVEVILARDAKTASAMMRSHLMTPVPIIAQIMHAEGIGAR
# [2] = biological target: T2, GcdR (Pseudomonas putida (KT2440?)) (UniProt Q88RH3)
# T2 sequence: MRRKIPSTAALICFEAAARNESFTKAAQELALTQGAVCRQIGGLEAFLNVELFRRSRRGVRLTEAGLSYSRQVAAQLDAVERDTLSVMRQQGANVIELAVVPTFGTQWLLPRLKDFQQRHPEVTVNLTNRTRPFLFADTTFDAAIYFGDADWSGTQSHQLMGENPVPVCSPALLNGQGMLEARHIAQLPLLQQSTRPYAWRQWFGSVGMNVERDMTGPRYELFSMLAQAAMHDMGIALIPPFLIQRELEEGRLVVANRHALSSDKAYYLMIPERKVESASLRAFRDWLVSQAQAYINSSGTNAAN
# [3] = test system: CsiR (Pseudomonas putida (KT2440?))
# [4] = test system: GcdR (Pseudomonas putida (KT2440?))
substance,measurement,setting,value
AGTTCGATCTGCGTAAAGGCGTTCATGGCAGTGTCCTGGCTAAAAAAGTAGATGGCGCCGTCCGGTCATGACCTGGATCAGTGCGGGCGAGGTAAAAATATCGCCACTAACTGAAAATGTCTACATTTTTATTTTTCAACGACACTACTCGTGTTTGTCCATTGTTTTTCGTCAGCAGAGGGTTTCGGTATGATCGGCAAAACGTTTTGAGGAACAGGATCTTGGAAGCGCTCGCCCCCCGACAAAACTCAGCATTCAGCGGG (double strand) [csiR-csiD intergenic probe],Kd,[1],30 nM
CGGGTCGATCCAGTTGAAACTTGCTTTACCGACCATGAGCGAATCCTCGAAATAGGGGTCAGTTTCTTGTGCCTTTGAGCCTAGGCCTGATCGGCTGCGGCGACAAACGAGGATTGCGCACCGATTAGTGATATTTTGTCACTCCGTAAATCGGCAAAACGCCTTATTGACAGCCTTACAAGTGAGGTTGACGTACATGC (double strand) [gcdR intergenic probe],Kd,[2],62.5 nM
csiR-csiD intergenic probe,Kd,[3],30 nM
gcdR intergenic probe,Kd,[4],62.5 nM
